Results published in PMC12630360.

Legend:
[1] = target: HLA class I heavy chains of HeLa/US6 cells (the H of HLA-Hβ in the BFA/temperature upshift decays) (human (endogenous in HeLa)); experiment: flow cytometry on cells; BFA/temperature upshift decays: cells overnight at 25 °C, 10 μg/ml brefeldin A, then 37 °C for the indicated times; surface Hβ and fH followed with conformation-specific mAbs; half-times fitted (by hand or Solver) with a first-order in silico model
[2] = target: H-2L^d heavy chain (free heavy chain, L^d-fH, when without β2m and peptide) (mouse); experiment: as above

half-time of β2m dissociation (r1) at 37 °C [1] [min]	half-time of β2m dissociation (r1) at 37 °C [2] [min]	Substance
10		beta-2 microglobulin of HeLa/US6 cells (from UniProt P61769 21-119) (natural protein)
	3	beta-2 microglobulin of STF1 cells (from UniProt P61769 21-119) (natural protein)
